Source: article PMC9371702 (Proceedings of the National Academy of Sciences of the …, 2022)

Biological target: human CTLA-4 (as crystallised with 4003-1 (VH)) (human, UniProt P16410)
Assay: crystal structure

Chain of human CTLA-4 (as crystallised with 4003-1 (VH)) (P16410 36-154): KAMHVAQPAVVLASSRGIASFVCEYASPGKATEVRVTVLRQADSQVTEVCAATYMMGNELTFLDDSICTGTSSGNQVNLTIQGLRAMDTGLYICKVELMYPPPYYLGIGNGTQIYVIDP

B1: 4003-1 (VH) (VHH)
VHH: EVQLVESGGGLIQPGGSLRLSCAVSGFTVSKNYMSWVRQAPGKGLEWVSVVYSGGSKTYADSVKGRFTISRDNSKNTLYLQMNSLRAEDTAVYYCARAVPHSPSSFDIWGQGTMVTVSS
B1: binds.
